# Laboratory results: article PMC8999356, “In Vitro One-Pot 3-Hydroxypropanal Production from Cheap C1 and C2 Compounds” (International Journal of Molecular Sciences, 2022)
# Legend:
# [1] = substrate: CC=O; assay: aldol condensation, 3-HPA quantified by HPLC after O-benzylhydroxylamine derivatisation, Michaelis-Menten fit; format: biochemical, Thermotoga maritima; details: co-substrate formaldehyde, 20 mM Kpi pH 7.0, 40 °C
# [2] = substrate: C=O; assay: as above; format: biochemical, Thermotoga maritima; details: co-substrate acetaldehyde, 20 mM Kpi pH 7.0, 40 °C
protein,measurement,setting,value
DERATma (Thermotoga maritima MSB8) (protein) MIEYRIEEAVAKYREFYEFKPVRESAGIEDVKSAIEHTNLKPFATPDDIKKLCLEARENRFHGVCVNPCYVKLAREELEGTDVKVVTVVGFPLGANETRTKAHEAIFAVESGADEIDMVINVGMLKAKEWEYVYEDIRSVVESVKGKVVKVIIETCYLDTEEKIAACVISKLAGAHFVKTSTGFGTGGATAEDVHLMKWIVGDEMGVKASGGIRTFEDAVKMIMYGADRIGTSSGVKIVQGGEERYGG,Km,[1],6.95 mM
same,kcat,[1],0.0085 s⁻¹
same,Km,[2],2.41 mM
same,kcat,[2],0.00817 s⁻¹
